Measured values from patent US12365732 (23ANDME, dated 2025).
Residue numbers refer to the chain shown, from its start. In names and notes the source's numbering stands.

T1: hu-CD96 isoform 2 on CHO cells (human, UniProt P40200 22-585)
T1 construct: also called CHO-CD96 (isoform 2); CD96-CHOs
T1 sequence: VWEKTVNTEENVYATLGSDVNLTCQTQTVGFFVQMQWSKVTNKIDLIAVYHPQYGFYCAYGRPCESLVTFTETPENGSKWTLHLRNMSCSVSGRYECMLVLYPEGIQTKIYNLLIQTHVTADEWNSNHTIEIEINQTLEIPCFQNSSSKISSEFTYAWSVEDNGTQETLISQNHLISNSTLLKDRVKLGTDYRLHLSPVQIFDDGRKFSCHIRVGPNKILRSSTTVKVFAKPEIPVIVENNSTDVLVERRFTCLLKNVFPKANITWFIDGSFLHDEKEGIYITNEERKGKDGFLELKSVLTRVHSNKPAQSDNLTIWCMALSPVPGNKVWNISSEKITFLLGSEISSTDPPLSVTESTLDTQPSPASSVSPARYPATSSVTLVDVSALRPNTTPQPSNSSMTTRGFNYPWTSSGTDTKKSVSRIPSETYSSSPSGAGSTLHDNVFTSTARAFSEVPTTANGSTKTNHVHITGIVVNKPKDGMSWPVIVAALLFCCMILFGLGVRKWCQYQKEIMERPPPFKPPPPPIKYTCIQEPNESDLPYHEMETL

T2: hu-CD96 isoform 1 on HEK293T cells (human, UniProt P40200 22-585)
T2 construct: Origene RC213845, transient expression; also called HEK293T-CD96 (iso1)
T2 sequence: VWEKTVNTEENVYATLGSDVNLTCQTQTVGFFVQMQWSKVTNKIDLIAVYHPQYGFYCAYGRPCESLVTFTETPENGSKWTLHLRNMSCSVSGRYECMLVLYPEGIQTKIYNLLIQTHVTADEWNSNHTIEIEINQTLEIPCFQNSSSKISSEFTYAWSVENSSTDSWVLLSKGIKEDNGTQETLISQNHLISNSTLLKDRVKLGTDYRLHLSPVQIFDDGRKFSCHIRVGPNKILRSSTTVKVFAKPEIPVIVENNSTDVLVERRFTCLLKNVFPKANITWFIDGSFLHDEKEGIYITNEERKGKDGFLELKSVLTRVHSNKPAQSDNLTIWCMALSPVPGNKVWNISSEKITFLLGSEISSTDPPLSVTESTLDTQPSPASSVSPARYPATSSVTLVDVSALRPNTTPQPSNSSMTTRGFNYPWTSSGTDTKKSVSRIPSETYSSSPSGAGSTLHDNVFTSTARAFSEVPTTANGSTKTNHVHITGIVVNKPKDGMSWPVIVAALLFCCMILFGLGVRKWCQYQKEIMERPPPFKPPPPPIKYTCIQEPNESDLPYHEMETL

B1: 9H4, purified hybridoma antibody (antibody, V domains shown)
VH: EVQLLETGGGLVKSGGSLKLSCAASGFTFSDYYMYWVRQTPEKRLEWVAAISDDGTYTYYPDSVKGRFTISRDNANNYLYLQMSSLKSEDTAIYYCAKAGSYDYFDVWGAGTTVTVSS
VL: DIVLTQSPASLAVSLGQRAIISCKASQSVTFADTGLMHWYQQKPGQQPKLLIYRASNLEVGVPTRFSGSGSGTDFTLNIHPVEEEDVATYYCQQSREYPWTFGGGTKLEIK
notes: murine hybridoma IgG
B2: 7E5, purified hybridoma antibody (antibody, V domains shown)
VH: QVQLKESGPGLVAPSQSLSIICTVSGFSLTNYGIHWIRQPPGKGLEWLGIIWAGGSTNYNSALMSRLTISKDNSKSQVFLKMNSLQTNDTAIYYCARVSMMGFAYWGQGTLVTVSA
VL: QAVVTQESALTTSPGETVTLTCRSSTGAVTTSNYANWVQEKPDHLFTGLIGGTNNRAPGVPARFSGSLIGDKAALTITGAQTEDEAIYFCSLWYGSHWVFGGGTKLTVL
notes: murine hybridoma IgG
B3: 10G1 (clone 10G1.3G8), purified hybridoma antibody (antibody, V domains shown)
VH: QIQLVQSGPELKKPGETVKISCKASGYPFTTYGMSWVKQAPGKGLKWMGWINTDSGVPTYADDFKGRFAFSLETSANTAYLQINSLKNEDAATYFCARNIYYGWGNFDYWGQGTILTVSS
VL: DILMTQSPTTLSVTPGETVSLSCRASQDIYRNLHWYQQKSQGTPRLLIKHASDSISGIPSRFTGSGSGTDFTLSINSVKPEDEGIYYCLQGYSMPYTFGGGTKLEIK
notes: murine hybridoma IgG
B4: mAb1.v7 IgG (humanized 12F8) (antibody, V domains shown)
VH: EVQLVQSGAEVKKPGASVKVSCKASGFTFTNNWMHWVRQAPGQGLEWIGMIHPNSGITNINEKFKNRVTMTTDTSTSTAYMELRSLRSEDTAVYYCRSDGTYEGYFDYWGQGTLVTVSS
VL: DIQLTQSPSSLSASVGDRVTITCKASQNVGTAIVWYQQKPGKAPKVLIYSASTRYTGVPSRFSGSGSGTDFTLTISSLQPEDFATYYCQQYSSSPLTFGQGTKVEIKG
notes: human IgG1 N297G
B5: mAb1.v7.NGS10 IgG (antibody, V domains shown)
VH: B4 VH with W33F, M50F, P53A, T101I
VL: B4 VL
notes: human IgG1 N297G
B6: mAb1.v7.NGS11 IgG (antibody, V domains shown)
VH: B4 VH with W33F, M50F, P53A, T101V
VL: B4 VL
notes: human IgG1 N297G
B7: mAb1.v7.NGS9 IgG (antibody, V domains shown)
VH: B4 VH with W33F, P53A, T101V
VL: B4 VL
notes: human IgG1 N297G
B8: h10G1 IgG (humanized 10G1) (antibody, V domains shown)
VH: EIQLVQSGSELKKPGASVKVSCKASGYPFTTYGMSWVRQAPGQGLEWMGWINTDSGVPTYADDFKGRFVFSLDTSVSTAYLQISSLKAEDTAVYFCARNIYYGWGNFDYWGQGTLVTVSS
VL: EIVMTQSPDFQSVTPKEKVTITCRASQDIYRNLHWYQQKPDQTPKLLIKHASDSISGIPSRFSGSGSGTDFTLTINSLEAEDAAAYYCLQGYSMPYTFGGGTKVEIKG
notes: human IgG1 N297G

Key:
[1] = molecular target: T1, hu-CD96 isoform 2 on CHO cells; assay: FACS, % positive curve
Experimental: (§1) Isoform 1 of hu-CD96 (Origene, catalog #RC213845) was transiently expressed in HEK293T cells following standard lipofectamine or Fugene transfection protocol. […] Cells were washed, and binding was detected by incubation with anti-mouse IgG-FITC (Biolegend, catalog #406001) for 20 minutes at 4° C. Cell binding was analyzed by flow cytometry with a CytoFLEX (Beckman Coulter). Binding curves were calculated as a percentage of cells positive for bound antibody.
Isoform 2 of hu-CD96 (DNA construct: Origene, catalog #RC221005) was expressed on a single-cell-clone-derived CHO stable cell line. Binding of the anti-CD96 antibodies to the CHO cells were determined as described above with isoform 1 of hu-CD96.

[2] = molecular target: T2, hu-CD96 isoform 1 on HEK293T cells; assay: FACS, Ab 2 nM
Experimental: as §1

[3] = molecular target: T1, hu-CD96 isoform 2 on CHO cells; assay: FACS, CD155-Fc-FLAG 10 nM, Ab 100 nM
Experimental: CHO cells stably expressing isoform 2 of hu-CD96 (Origene, catalog #RC221005) were incubated with anti-CD96 antibodies for 20 minutes at 4° C. The cells were washed, and then incubated with 10 nM human CD155-Fc-FLAG for 30 minutes at 4° C. Cells were washed, and then human CD155-Fc-FLAG binding was detected by incubation with anti-FLAG-APC (Columbia Biosciences, catalog #D3-1718-1MG) for 20 minutes at 4° C. Cell binding was analyzed by flow cytometry with a CytoFLEX (Beckman Coulter). CD155 binding is represented as median fluorescence intensity (MedFI).
As shown in Table 20 (below), the anti-CD96 antibodies, mAb1.v7.NGS8, mAb1.v7.NGS9, mAb1.v7.NGS10, mAb1.v7.NGS11, and h10G1 inhibited soluble hu-CD155 binding to CD96-expressing CHO cells dose-dependently and potently. The antibody NK92.39 (Fuchs et al., 2004; Biolegend catalog #338405) inhibited receptor binding similarly.

Row | Binder | EC50 [1] [pM] | % positive [2] [%] | CD155-Fc binding (MedFI) [3] [MedFI]
1 | B1 | 380 | 28.5 | –
2 | B2 | 110 | 37.1 | –
3 | B3 | 230 | 48.1 | –
4 | B4 | 520 | 27.3 | –
5 | B5 | – | – | 5110
6 | B6 | – | – | 4210
7 | B7 | – | – | 4140
8 | B8 | – | – | 5120
